The values below come from PMC10755771.

The target in this assay is STAM1-His (signal-transducing adaptor molecule 1, wild type) (UniProt Q92783).

“βarrestin1 (untagged, wild type) (from UniProt P49407 1-418) (natural protein)” gave an in vitro ubiquitination of STAM1 by AIP4 with βarr1 at 0-320 nM, 90 min at 37 °C; EC50 for βarr1 from the STAM1 immunoblots of 48.7 nM and an in vitro ubiquitination of STAM1 by AIP4 with βarr1 at 0-320 nM, 90 min at 37 °C; EC50 for βarr1 from the ubiquitin immunoblots of 49.8 nM.
